The test concerns the target T1, human IL-5Rα expressed on the K562/IL-5Rα cell line (human, UniProt Q01344 21-420).
T1 construct: whole, on cells; also called human IL-5 receptor alpha subunit
T1 sequence (looked up): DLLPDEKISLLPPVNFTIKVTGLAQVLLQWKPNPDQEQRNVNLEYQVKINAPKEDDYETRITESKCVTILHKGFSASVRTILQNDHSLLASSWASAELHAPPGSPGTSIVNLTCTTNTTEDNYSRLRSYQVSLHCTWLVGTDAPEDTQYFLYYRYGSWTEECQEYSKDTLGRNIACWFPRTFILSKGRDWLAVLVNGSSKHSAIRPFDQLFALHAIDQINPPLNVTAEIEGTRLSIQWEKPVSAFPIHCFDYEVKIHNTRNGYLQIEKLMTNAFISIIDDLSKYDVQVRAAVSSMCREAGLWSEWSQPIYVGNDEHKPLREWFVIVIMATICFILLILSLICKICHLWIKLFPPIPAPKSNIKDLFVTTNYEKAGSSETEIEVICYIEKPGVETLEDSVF
The test is described as follows: flow cytometry on K562/IL-5Rα cells, 50 nM antibody. (Flow cytometry measures light scatter and fluorescence of single cells or particles in a stream.)

B1: IL-5Rα(5R65)×CD3ε-scFv(L)/scFv-Fc (bispecific antibody)
chain 1: DIQMTQSPSTLSASVGDRVTITCKASQNVGTAVAWYQQKPGKAPKLLIYWASTRHTGVPDRFSGSGSGTDFTLTISSLQPDDFATYYCQQFGRYPYTFGSGTKVEVKGGGGSGGGGSGGGGSQVQLVQSGAEVKKPGSSVKVSCKASGYTFTSYWINWVRQAPGQGLEWIGHIYPNKNENYYNHKFKDKATLTVDKSTNTAYMELSSLRSEDTAVYYCTRDYYGRSYYYAMDYWGQGTTLTVSSEPKSCDKTHTCPPCPAPEFEGGPSVFLFPPKPKDTLMISRTPEVTCVVVAVSHEDPEVKFNWYVDGVEVHNAKTKPREEQYNSTYRVVSVLTVLHQDWLNGKEYKCKVSNKALPAPIEKTISKAKGQPREPRVYTLPPSRDELTKNQVSLTCLVKGFYPSDIAVEWESNGQPENNYKTTPPVLVSDGSFTLYSKLTVDKSRWQQGNVFSCSVMHEALHNHYTQKSLSLSPGK
chain 2: QAVVTQESALTTSPGETVTLTCRSSTGAVTTSNYANWVQEKPDHLFTGLIGGTNKRAPGVPARFSGSLIGDKAALTITGAQTEDEAIYFCALWYSNLWVFGGGTKLTVLGGGGSGGGGSGGGGSEVQLVESGGGLVQPKGSLKLSCAASGFTFNTYAMNWVRQAPGKGLEWVARIRSKYNNYATYYADSVKDRFTISRDDSQSILYLQMNNLKTEDTAMYYCVRHGNFGNSYVSWFAYWGQGTLVTVSSEPKSCDKTHTCPPCPAPEFEGGPSVFLFPPKPKDTLMISRTPEVTCVVVAVSHEDPEVKFNWYVDGVEVHNAKTKPREEQYNSTYRVVSVLTVLHQDWLNGKEYKCKVSNKALPAPIEKTISKAKGQPREPQVYTLPPSRDELTENQVSLTCLVKGFYPSDIAVEWESNGQPENNYKTTPPVLDSDGSFFLYSWLTVDKSRWQQGNVFSCSVMHEALHNHYTQKSLSLSPGK
notes: Control in the scFv(L)/scFv-Fc format, built with 5R65, the parent antibody of 5R65.7; also called IL-5Rα(5R65)×CD3α-scFv(L)/scFv-Fc
For the molecule B1, the binding result is “binds”.

Source of the values: patent EP4707301A1 (AJOU UNIVERSITY INDUSTRY-ACADEMIC COOPERATION FOUNDATION, dated 2026).
